Laboratory results as given in the supplement of paper PMC11865577.

Legend:
Assay in all cases: pull-down binding Z-score (relative to library population); higher = stronger binding
[1] = test system: G-clamp-N3 (biotin conjugate); conditions: RNA library: Library-1 (pre-miRNA loops + repeats)
Method in brief: (§1)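 An RNA library (1 μg) carrying a Cy5 or Cy3 end label was heat-folded in phosphate/NaCl/KCl buffer, then incubated for 60 min at 25 °C with streptavidin beads loaded with 100 pmol of biotin-conjugated small molecule. The beads were washed three times, and bound RNA was released in hot SDS and hybridised to a DNA barcode microarray for 20 h at 55.5 °C. Each binding score was derived by subtracting the signal from beads without compound, averaging the barcoded replicate probes after removing the highest and lowest, and expressing the result as a Z-score relative to the library mean and standard deviation.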

[2] = test system: TO-3-N3 (biotin conjugate); conditions: RNA library: Library-2
Method in brief: as §1

[3] = test system: TO-3-N3-2 (biotin conjugate); conditions: RNA library: Library-2
Method in brief: as §1

TO-N3 (biotin conjugate) = conditions: RNA library: Library-2
Method in brief: as §1

[4] = test system: TO-N3-2 (biotin conjugate); conditions: RNA library: Library-2
Method in brief: as §1

Row | Sequence | pull-down binding Z-score [1] | pull-down binding Z-score [2] | pull-down binding Z-score [3] | pull-down binding Z-score (TO-N3 (biotin conjugate)) | pull-down binding Z-score [4]
1 | CUUCUGCUUCCUCUUAGCGCAGGAG [hsa-mir-1914] | -1.66 | -0.591 | -0.325 | -0.751 | -0.409
2 | UAUAGCUACAUCAGUUAUAACUAUAUCAGUUAAA [hsa-mir-5582] | -1.59 | 1.67 | 0.447 | 1.57 | 0.00457
3 | CUCAUGAUAUGUUUGCCCCAUCAGCGUGUCACGAG [hsa-mir-3616] | 0.251 | -0.104 | -0.139 | -0.0894 | 0.199
4 | GUGGAGGUAGGCGAGAGUAAUAUAAUUUCUCCAGGAGAACAUCUGAGAGGGGAAGUUGCUUUCCUGCCCUGGCCCUUUCAC [hsa-mir-6076] | -0.319 | 0.431 | 0.000368 | 0.735 | 1.37
5 | CAGACCAUGCCACAUCCGUCUG [hsa-mir-7152] | -0.704 | -0.515 | -0.604 | -0.651 | -0.334
6 | GGCAUCAGAGGACAGCCGCCUGGUGCC [hsa-mir-4641] | 0.915 | 0.287 | -0.0706 | 0.327 | 0.46
7 | GAGUACCUUCCAACACGAGCUCUC [hsa-mir-3664] | -1.16 | -0.183 | -0.173 | 0.318 | 1.06
8 | UUUUUCUUUACUUUUAAUGGCAAA [hsa-mir-548u] | 0.72 | -1.03 | -0.338 | -1.35 | -1.2
9 | GUUGAAAAAUAUCUAUGUAUUAGUAAAC [hsa-mir-649] | -0.475 | -0.0443 | -0.281 | -0.151 | -0.74
10 | CACGCAUUUGCUUUACUUGCAAUGAUUAUA [hsa-mir-300] | -0.374 | 0.485 | 0.215 | 0.583 | 0.472
11 | UAGAUGAAUAAAUGAAUGACUCAUCA [hsa-mir-545] | -0.383 | -0.346 | 0.146 | -0.414 | -0.21
12 | UUUGCCGUUGCUUUUAAUGGUAAA [hsa-mir-548as] | -0.134 | -0.291 | -0.381 | -0.571 | -1.31
13 | CAGCCCCGUGUGUUGAGGAAGGAAGG [hsa-mir-940] | 1.54 | 0.485 | 0.769 | 1.24 | 1.95
14 | GGAUGAAAGUCAAAGAAUCC [hsa-mir-1262] | -0.564 | 1.25 | 0.0666 | 1.17 | 0.0488
15 | UUUCUGUUGUCUGAAAGAAAAGAAC [hsa-mir-523] | -0.976 | -0.301 | 0.0657 | -0.0983 | 0.513
16 | UGGCGACACUCGCGCCAGCUCCCGGGACGGCUGGGCUCGGGCUGGUCGCCGA [hsa-mir-7845] | 3.14 | 0.0309 | -0.167 | 0.341 | 1.38
17 | UGGGUCAAGGAGCCCA [hsa-mir-4530] | 0.476 | -0.163 | -0.211 | -0.3 | -0.3
18 | CUUAAUAGAUUAAUAUUUGUAAG [hsa-mir-506] | 0.431 | -0.743 | -0.335 | -0.877 | -1.02

Row | Sequence | pull-down binding Z-score [1] | pull-down binding Z-score [2] | pull-down binding Z-score [3] | pull-down binding Z-score (TO-N3 (biotin conjugate)) | pull-down binding Z-score [4]
19 | UCCCUUCCUGGACACACAGGAGGAGA [hsa-mir-5680] | -1.27 | -0.738 | -0.8 | -0.874 | -0.56
20 | UGGAGGUGAUGGAUGUUUUCCUCCG [hsa-mir-671] | -0.238 | -0.607 | -0.398 | -0.717 | -0.359
21 | GCUGGUCGCGGGUUGUGGGGUUUAGGUCACCGGC [hsa-mir-5091] | 1.7 | 3.15 | 2.9 | 3.21 | 2.87
22 | GGCUGGGGUCACUGACUCUGCUUCCCCUGCC [hsa-mir-6799] | -0.448 | -0.14 | -0.0439 | -0.0831 | 0.62
23 | GUCUUGAUCCCCCACCCCAAGAC [hsa-mir-642b] | -1.37 | -0.257 | -0.299 | -0.41 | 0.091
24 | GUGUUCACACAUAAUGUGUACACCAUGUGUGUACAC [hsa-mir-5692b] | -0.31 | 0.192 | -0.272 | 0.022 | -0.606
25 | GACUUCCAUGACAUGAAAUAGGAAGUC [hsa-mir-616] | 0.351 | -0.453 | -0.183 | -1.12 | -0.705
26 | AUUCAGACUCAGGU [hsa-mir-921] | -0.651 | -0.232 | -0.0856 | -0.204 | -0.0427
27 | GAGGCCUCUUGCCAUGGCCUCC [hsa-mir-7113] | -1.1 | -0.486 | -0.378 | -0.406 | 0.766
28 | CACGAGAUACCAGUGUGCACUUGUG [hsa-mir-542] | -0.858 | -0.51 | -0.425 | -0.441 | 0.103
29 | CAGGUGCCUCAAAGGGCAUCCCACCUG [hsa-mir-3151] | -0.124 | -0.578 | -0.452 | -0.673 | 0.0349
30 | GCAGCUAGUAAUAUGAGCCCAGUUGC [hsa-mir-153-2] | -0.831 | 0.0352 | -0.0986 | -0.011 | 0.128
31 | GUGAUUGUCUUCCUCACUCAAUCAG [hsa-mir-4704] | -1.11 | 0.145 | -0.174 | 0.0942 | -0.0609
32 | GAUUGGUUAGCCUAAGACUUGUUCUGAUCCAAUC [hsa-mir-5701-1_5701-2_5701-3] | -0.75 | 0.546 | 0.14 | 0.513 | 0.061
33 | CUCUCCUCCAGCUCAGCUGGUCAGGAGAG [hsa-mir-3160-1] | -0.259 | 1.09 | -0.0211 | 0.959 | -0.0869
34 | UCCCAGGCCCUUCCUCCAAUACUGGGA [hsa-mir-4666b] | -0.809 | -0.252 | -0.0987 | -0.383 | -0.446
35 | AGUGAGUUGAUUACUUCUCACU [hsa-mir-4676] | -0.179 | -0.0959 | -0.441 | -0.26 | -0.222
36 | UUCUUGUACGAGUCUGCGGCCAACCGAGAA [hsa-mir-219a-2] | -0.0874 | -0.402 | -0.366 | 0.347 | 0.974
